Publication doi:10.1101/660928

Tested on: Rv1626 D65E (phosphomimic, Rv1626~P) (Mycobacterium tuberculosis)
Assay: EMSA

**Q.** Which Kd does the source give for “5' UTR of Mtb Rv1936 (category 1 ANTAR RNA)” here?
**A.** 15 µM
